19 molecules from US20080220049A1 can be followed below.

Changes are numbered by the printed parent chain.

B1: A4 (designed binder)
chain: EVVAATPTSLLISWRHPHFPTRYYRITYGETGGNSPVQEFTVPLQPPTATISGLKPGVDYTITGYAVTDGYNDRLLFIPISINYRT
B2: EGE9 (designed binder)
chain: B1 chain with D69F, Y71P, L75E, F77L, I78T
B3: F10 (designed binder)
chain: B1 chain with D69M, G70A, Y71P, D73G, L75E, F77L, I78T
B4: D11 (designed binder)
chain: B1 chain with D69V, G70E, Y71R, D73G, R74H, L75K, I78T
B5: A8 (designed binder)
chain: B1 chain with Y71L, D73G, R74K, L75Y, I78V
B6: E15 (designed binder)
chain: B1 chain with D69L, G70E, Y71P, D73G, L75Y, F77M, I78V
B7: A7 (designed binder)
chain: B1 chain with Y71P, D73N, L75E, F77I, I78V
B8: G1 (designed binder)
chain: B1 chain with D69E, Y71R, D73G, L75E, F77M, I78V
B9: EGE10 (designed binder)
chain: B1 chain with D69M, Y71P, L75E, F77L, I78T
B10: E10 (designed binder)
chain: B1 chain with D69E, Y71R, D73G, L75E
B11: F12 (designed binder)
chain: B1 chain with Y71R, D73G, R74H, L75E, F77M, I78T
B12: E13 (designed binder)
chain: B1 chain with D69L, G70E, Y71Q, D73G, L75E, F77M, I78T
B13: EGE11 (Table 2 row SEQ ID NO 88) (designed binder)
chain: B1 chain with D69M, Y71K, L75E, F77L, I78T
B14: E21 (designed binder)
chain: B1 chain with D69W, N72K, R74H, L75E, F77L
B15: F1 (designed binder)
chain: B1 chain with D69S, Y71R, L75E, F77L, I78V
B16: E12 (designed binder)
chain: B1 chain with D69F, G70A, Y71R, N72D, D73G, R74H, L75E, L76I, F77L, I78T
B17: A9 (designed binder)
chain: B1 chain with D69E, Y71W, L75E, I78V
B18: A10 (designed binder)
chain: B1 chain with D69F, Y71W, D73G, L75E, F77L, I78T
B19: E22 (designed binder)
chain: B1 chain with D69L, Y71R, L75E, F77L, I78T

For the test, the target named is mouse vascular endothelial growth factor receptor-2 Fc chimera (Flk-1-Fc) (mouse) (UniProt P35918). Briefly: radioactive equilibrium binding, 1 nM Flk-1-Fc.
Sequence of mouse vascular endothelial growth factor receptor-2 Fc chimera (Flk-1-Fc) (mouse) (P35918 20-762, change not shown): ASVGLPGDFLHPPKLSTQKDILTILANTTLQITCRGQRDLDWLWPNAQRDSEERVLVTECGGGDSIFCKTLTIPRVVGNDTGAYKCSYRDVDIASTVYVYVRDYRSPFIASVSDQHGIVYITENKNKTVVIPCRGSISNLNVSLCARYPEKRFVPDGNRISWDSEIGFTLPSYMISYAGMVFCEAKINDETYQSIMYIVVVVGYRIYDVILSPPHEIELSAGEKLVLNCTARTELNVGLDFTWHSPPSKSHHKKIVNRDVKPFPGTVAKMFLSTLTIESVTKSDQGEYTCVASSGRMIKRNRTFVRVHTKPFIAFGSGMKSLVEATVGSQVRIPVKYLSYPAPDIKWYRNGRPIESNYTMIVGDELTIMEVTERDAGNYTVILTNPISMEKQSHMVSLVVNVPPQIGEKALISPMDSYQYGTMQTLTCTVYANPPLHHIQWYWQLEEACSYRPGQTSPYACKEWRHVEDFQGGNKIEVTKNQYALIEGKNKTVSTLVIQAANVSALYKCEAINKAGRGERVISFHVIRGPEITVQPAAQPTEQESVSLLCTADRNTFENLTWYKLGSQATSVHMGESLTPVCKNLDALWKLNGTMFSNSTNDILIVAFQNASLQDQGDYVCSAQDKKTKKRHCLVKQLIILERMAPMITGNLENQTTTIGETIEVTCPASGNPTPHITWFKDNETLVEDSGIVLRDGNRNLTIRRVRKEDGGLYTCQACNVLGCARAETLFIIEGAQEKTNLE
B1: the Binding to 1 nM Flk-1, % is 2%.
For B2, the Binding to 1 nM Flk-1, % worked out at 1%.
Under B3 stands 1%.
For B4 the value was 3%; for B5, 4%; for B6, 2%.
For B7 the value was 2%; for B8, 2%; for B9, 1%.
Regarding B10, the Binding to 1 nM Flk-1, % was 3%.
As to B11, the Binding to 1 nM Flk-1, % is 1%.
For B12 the value was 1%; for B13, 1%.
Under B14 stands 1%; under B15, 2%; under B16, 1%.
Under B17 stands 4%.
Consider B18, for which the Binding to 1 nM Flk-1, % was 4%.
For B19, the Binding to 1 nM Flk-1, % came out at 3%.
